Target: T1, human IL-6 (human, UniProt P05231 30-212)
T1 construct: also called interleukin-6
Experiment: SPR (Biacore T200), antibody from cell supernatant captured on Protein A, IL-6 flowed over, 37 C
Experimental: Those four positions were selected based on their tolerance for mutations as observed in bacterial and mammalian screens. […] These cultures were centrifuged and supernatants containing secreted antibodies were harvested and diluted in HBS-EP+ running buffer (1:20 ratio).
Antibodies were captured on a Protein A chip (GE) by injecting 1:20 cell supernatant dilutions at 10 μL/min for 60 seconds. […] The sensor chip was regenerated by a 60 seconds injection of 10 mM Glycine pH 1.7 at the flow rate of […]. […] For this setup, 1 μg/mL of purified antibody was injected over a Protein A chip at 10 μL/min for 25 seconds. […] The sensor chip was regenerated by a 60 seconds injection of 10 mM Glycine pH 1.7 at flow rate of 50 μL/min. Data analysis for supernatant and purified samples were performed using BIAevaluation software (GE). All sensorgrams were double reference subtracted and fit using a 1:1 Langmuir binding model.

T1 sequence (P05231 30-212 limits assumed): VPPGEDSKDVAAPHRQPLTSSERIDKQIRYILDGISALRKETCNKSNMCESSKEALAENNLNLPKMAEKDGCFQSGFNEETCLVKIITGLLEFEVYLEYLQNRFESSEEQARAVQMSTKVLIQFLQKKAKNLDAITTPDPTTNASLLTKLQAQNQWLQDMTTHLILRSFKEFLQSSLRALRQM

Row | Kd | koff | kon | Binder
1 | 0.00369 nM | 6.68e-06 s⁻¹ | 1.81e+06 M⁻¹ s⁻¹ | anti-IL-6 antibody, heavy chain I51V, G66D / light chain WT (antibody, human IgG1, V domains shown, Derived as m2; Engineered human IgG1) VH: EVQLVESGGGLVQPGGSLRLSCAASGFTFSPFAMSWVRQAPGKGLEWVAKVSPGGSWTYYSDTVTDRFTFSLDTSKSTAYLQMNSLRAEDTAVYYCARQLWGYYALDIWGQGTLVTVSS VL: DIQLTQSPSSLSASVGDRVTITCSASISVSYMYWYQQKPGKAPKLLIYDMSNLASGVPSRFSGSGSGTDFTLTISSLQPEDFATYYCMQWSGYPYTFGQGTKVEIK
2 | 4.93 nM | 0.00943 s⁻¹ | 1.91e+06 M⁻¹ s⁻¹ | anti-IL-6 antibody, heavy chain I51W, G66D / light chain WT (antibody, human IgG1, V domains shown, Derived as m2; Engineered human IgG1) VH: EVQLVESGGGLVQPGGSLRLSCAASGFTFSPFAMSWVRQAPGKGLEWVAKWSPGGSWTYYSDTVTDRFTFSLDTSKSTAYLQMNSLRAEDTAVYYCARQLWGYYALDIWGQGTLVTVSS VL: DIQLTQSPSSLSASVGDRVTITCSASISVSYMYWYQQKPGKAPKLLIYDMSNLASGVPSRFSGSGSGTDFTLTISSLQPEDFATYYCMQWSGYPYTFGQGTKVEIK
3 | 0.582 nM | 0.000509 s⁻¹ | 874000 M⁻¹ s⁻¹ | anti-IL-6 antibody, heavy chain S35E, G66D / light chain WT (antibody, human IgG1, V domains shown, Derived as m2; Engineered human IgG1) VH: EVQLVESGGGLVQPGGSLRLSCAASGFTFSPFAMEWVRQAPGKGLEWVAKISPGGSWTYYSDTVTDRFTFSLDTSKSTAYLQMNSLRAEDTAVYYCARQLWGYYALDIWGQGTLVTVSS VL: DIQLTQSPSSLSASVGDRVTITCSASISVSYMYWYQQKPGKAPKLLIYDMSNLASGVPSRFSGSGSGTDFTLTISSLQPEDFATYYCMQWSGYPYTFGQGTKVEIK
4 | 0.3 nM | 0.000494 s⁻¹ | 1.65e+06 M⁻¹ s⁻¹ | anti-IL-6 antibody, heavy chain S35A, G66D / light chain WT (antibody, human IgG1, V domains shown, Derived as m2; Engineered human IgG1) VH: EVQLVESGGGLVQPGGSLRLSCAASGFTFSPFAMAWVRQAPGKGLEWVAKISPGGSWTYYSDTVTDRFTFSLDTSKSTAYLQMNSLRAEDTAVYYCARQLWGYYALDIWGQGTLVTVSS VL: DIQLTQSPSSLSASVGDRVTITCSASISVSYMYWYQQKPGKAPKLLIYDMSNLASGVPSRFSGSGSGTDFTLTISSLQPEDFATYYCMQWSGYPYTFGQGTKVEIK
5 | 0.321 nM | 0.000641 s⁻¹ | 2e+06 M⁻¹ s⁻¹ | anti-IL-6 antibody, heavy chain S35D, G66D / light chain WT (antibody, human IgG1, V domains shown, Derived as m2; Engineered human IgG1) VH: EVQLVESGGGLVQPGGSLRLSCAASGFTFSPFAMDWVRQAPGKGLEWVAKISPGGSWTYYSDTVTDRFTFSLDTSKSTAYLQMNSLRAEDTAVYYCARQLWGYYALDIWGQGTLVTVSS VL: DIQLTQSPSSLSASVGDRVTITCSASISVSYMYWYQQKPGKAPKLLIYDMSNLASGVPSRFSGSGSGTDFTLTISSLQPEDFATYYCMQWSGYPYTFGQGTKVEIK
6 | 3.45 nM | 0.0051 s⁻¹ | 1.48e+06 M⁻¹ s⁻¹ | anti-IL-6 antibody, heavy chain I51Y, G66D / light chain WT (antibody, human IgG1, V domains shown, Derived as m2; Engineered human IgG1) VH: EVQLVESGGGLVQPGGSLRLSCAASGFTFSPFAMSWVRQAPGKGLEWVAKYSPGGSWTYYSDTVTDRFTFSLDTSKSTAYLQMNSLRAEDTAVYYCARQLWGYYALDIWGQGTLVTVSS VL: DIQLTQSPSSLSASVGDRVTITCSASISVSYMYWYQQKPGKAPKLLIYDMSNLASGVPSRFSGSGSGTDFTLTISSLQPEDFATYYCMQWSGYPYTFGQGTKVEIK

The next lines start with the binder.

Row | Binder | Kd | koff | kon
7 | anti-IL-6 antibody, heavy chain I51A, G66D / light chain WT (antibody, human IgG1, V domains shown, Derived as m2; Engineered human IgG1) VH: EVQLVESGGGLVQPGGSLRLSCAASGFTFSPFAMSWVRQAPGKGLEWVAKASPGGSWTYYSDTVTDRFTFSLDTSKSTAYLQMNSLRAEDTAVYYCARQLWGYYALDIWGQGTLVTVSS VL: DIQLTQSPSSLSASVGDRVTITCSASISVSYMYWYQQKPGKAPKLLIYDMSNLASGVPSRFSGSGSGTDFTLTISSLQPEDFATYYCMQWSGYPYTFGQGTKVEIK | 0.327 nM | 0.000576 s⁻¹ | 1.76e+06 M⁻¹ s⁻¹
8 | anti-IL-6 antibody, heavy chain I51L, G66D / light chain WT (antibody, human IgG1, V domains shown, Derived as m2; Engineered human IgG1) VH: EVQLVESGGGLVQPGGSLRLSCAASGFTFSPFAMSWVRQAPGKGLEWVAKLSPGGSWTYYSDTVTDRFTFSLDTSKSTAYLQMNSLRAEDTAVYYCARQLWGYYALDIWGQGTLVTVSS VL: DIQLTQSPSSLSASVGDRVTITCSASISVSYMYWYQQKPGKAPKLLIYDMSNLASGVPSRFSGSGSGTDFTLTISSLQPEDFATYYCMQWSGYPYTFGQGTKVEIK | 0.386 nM | 0.000733 s⁻¹ | 1.9e+06 M⁻¹ s⁻¹
9 | anti-IL-6 antibody, heavy chain I51H, G66D / light chain WT (antibody, human IgG1, V domains shown, Derived as m2; Engineered human IgG1) VH: EVQLVESGGGLVQPGGSLRLSCAASGFTFSPFAMSWVRQAPGKGLEWVAKHSPGGSWTYYSDTVTDRFTFSLDTSKSTAYLQMNSLRAEDTAVYYCARQLWGYYALDIWGQGTLVTVSS VL: DIQLTQSPSSLSASVGDRVTITCSASISVSYMYWYQQKPGKAPKLLIYDMSNLASGVPSRFSGSGSGTDFTLTISSLQPEDFATYYCMQWSGYPYTFGQGTKVEIK | 0.348 nM | 0.000529 s⁻¹ | 1.52e+06 M⁻¹ s⁻¹
10 | anti-IL-6 antibody, heavy chain I51E, G66D / light chain WT (antibody, human IgG1, V domains shown, Derived as m2; Engineered human IgG1) VH: EVQLVESGGGLVQPGGSLRLSCAASGFTFSPFAMSWVRQAPGKGLEWVAKESPGGSWTYYSDTVTDRFTFSLDTSKSTAYLQMNSLRAEDTAVYYCARQLWGYYALDIWGQGTLVTVSS VL: DIQLTQSPSSLSASVGDRVTITCSASISVSYMYWYQQKPGKAPKLLIYDMSNLASGVPSRFSGSGSGTDFTLTISSLQPEDFATYYCMQWSGYPYTFGQGTKVEIK | 1.01 nM | 0.00076 s⁻¹ | 754000 M⁻¹ s⁻¹
11 | anti-IL-6 antibody, heavy chain I51S, G66D / light chain WT (antibody, human IgG1, V domains shown, Derived as m2; Engineered human IgG1) VH: EVQLVESGGGLVQPGGSLRLSCAASGFTFSPFAMSWVRQAPGKGLEWVAKSSPGGSWTYYSDTVTDRFTFSLDTSKSTAYLQMNSLRAEDTAVYYCARQLWGYYALDIWGQGTLVTVSS VL: DIQLTQSPSSLSASVGDRVTITCSASISVSYMYWYQQKPGKAPKLLIYDMSNLASGVPSRFSGSGSGTDFTLTISSLQPEDFATYYCMQWSGYPYTFGQGTKVEIK | 0.191 nM | 0.000362 s⁻¹ | 1.89e+06 M⁻¹ s⁻¹
12 | anti-IL-6 antibody, heavy chain I51F, G66D / light chain WT (antibody, human IgG1, V domains shown, Derived as m2; Engineered human IgG1) VH: EVQLVESGGGLVQPGGSLRLSCAASGFTFSPFAMSWVRQAPGKGLEWVAKFSPGGSWTYYSDTVTDRFTFSLDTSKSTAYLQMNSLRAEDTAVYYCARQLWGYYALDIWGQGTLVTVSS VL: DIQLTQSPSSLSASVGDRVTITCSASISVSYMYWYQQKPGKAPKLLIYDMSNLASGVPSRFSGSGSGTDFTLTISSLQPEDFATYYCMQWSGYPYTFGQGTKVEIK | 2.24 nM | 0.00305 s⁻¹ | 1.36e+06 M⁻¹ s⁻¹
13 | anti-IL-6 antibody, heavy chain I51K, G66D / light chain WT (antibody, human IgG1, V domains shown, Derived as m2; Engineered human IgG1) VH: EVQLVESGGGLVQPGGSLRLSCAASGFTFSPFAMSWVRQAPGKGLEWVAKKSPGGSWTYYSDTVTDRFTFSLDTSKSTAYLQMNSLRAEDTAVYYCARQLWGYYALDIWGQGTLVTVSS VL: DIQLTQSPSSLSASVGDRVTITCSASISVSYMYWYQQKPGKAPKLLIYDMSNLASGVPSRFSGSGSGTDFTLTISSLQPEDFATYYCMQWSGYPYTFGQGTKVEIK | 0.291 nM | 0.000402 s⁻¹ | 1.38e+06 M⁻¹ s⁻¹
14 | anti-IL-6 antibody, heavy chain I51G, G66D / light chain WT (antibody, human IgG1, V domains shown, Derived as m2; Engineered human IgG1) VH: EVQLVESGGGLVQPGGSLRLSCAASGFTFSPFAMSWVRQAPGKGLEWVAKGSPGGSWTYYSDTVTDRFTFSLDTSKSTAYLQMNSLRAEDTAVYYCARQLWGYYALDIWGQGTLVTVSS VL: DIQLTQSPSSLSASVGDRVTITCSASISVSYMYWYQQKPGKAPKLLIYDMSNLASGVPSRFSGSGSGTDFTLTISSLQPEDFATYYCMQWSGYPYTFGQGTKVEIK | 0.428 nM | 0.000581 s⁻¹ | 1.36e+06 M⁻¹ s⁻¹
15 | anti-IL-6 antibody, heavy chain I51P, G66D / light chain WT (antibody, human IgG1, V domains shown, Derived as m2; Engineered human IgG1) VH: EVQLVESGGGLVQPGGSLRLSCAASGFTFSPFAMSWVRQAPGKGLEWVAKPSPGGSWTYYSDTVTDRFTFSLDTSKSTAYLQMNSLRAEDTAVYYCARQLWGYYALDIWGQGTLVTVSS VL: DIQLTQSPSSLSASVGDRVTITCSASISVSYMYWYQQKPGKAPKLLIYDMSNLASGVPSRFSGSGSGTDFTLTISSLQPEDFATYYCMQWSGYPYTFGQGTKVEIK | 387 nM | 0.00612 s⁻¹ | 15800 M⁻¹ s⁻¹
16 | anti-IL-6 antibody, heavy chain I51Q, G66D / light chain WT (antibody, human IgG1, V domains shown, Derived as m2; Engineered human IgG1) VH: EVQLVESGGGLVQPGGSLRLSCAASGFTFSPFAMSWVRQAPGKGLEWVAKQSPGGSWTYYSDTVTDRFTFSLDTSKSTAYLQMNSLRAEDTAVYYCARQLWGYYALDIWGQGTLVTVSS VL: DIQLTQSPSSLSASVGDRVTITCSASISVSYMYWYQQKPGKAPKLLIYDMSNLASGVPSRFSGSGSGTDFTLTISSLQPEDFATYYCMQWSGYPYTFGQGTKVEIK | 0.336 nM | 0.000648 s⁻¹ | 1.93e+06 M⁻¹ s⁻¹
17 | anti-IL-6 antibody, heavy chain I51T, G66D / light chain WT (antibody, human IgG1, V domains shown, Derived as m2; Engineered human IgG1) VH: EVQLVESGGGLVQPGGSLRLSCAASGFTFSPFAMSWVRQAPGKGLEWVAKTSPGGSWTYYSDTVTDRFTFSLDTSKSTAYLQMNSLRAEDTAVYYCARQLWGYYALDIWGQGTLVTVSS VL: DIQLTQSPSSLSASVGDRVTITCSASISVSYMYWYQQKPGKAPKLLIYDMSNLASGVPSRFSGSGSGTDFTLTISSLQPEDFATYYCMQWSGYPYTFGQGTKVEIK | 0.232 nM | 0.000415 s⁻¹ | 1.79e+06 M⁻¹ s⁻¹
18 | anti-IL-6 antibody, heavy chain I51R, G66D / light chain WT (antibody, human IgG1, V domains shown, Derived as m2; Engineered human IgG1) VH: EVQLVESGGGLVQPGGSLRLSCAASGFTFSPFAMSWVRQAPGKGLEWVAKRSPGGSWTYYSDTVTDRFTFSLDTSKSTAYLQMNSLRAEDTAVYYCARQLWGYYALDIWGQGTLVTVSS VL: DIQLTQSPSSLSASVGDRVTITCSASISVSYMYWYQQKPGKAPKLLIYDMSNLASGVPSRFSGSGSGTDFTLTISSLQPEDFATYYCMQWSGYPYTFGQGTKVEIK | 0.169 nM | 0.000202 s⁻¹ | 1.2e+06 M⁻¹ s⁻¹
19 | anti-IL-6 antibody, heavy chain I51D, G66D / light chain WT (antibody, human IgG1, V domains shown, Derived as m2; Engineered human IgG1) VH: EVQLVESGGGLVQPGGSLRLSCAASGFTFSPFAMSWVRQAPGKGLEWVAKDSPGGSWTYYSDTVTDRFTFSLDTSKSTAYLQMNSLRAEDTAVYYCARQLWGYYALDIWGQGTLVTVSS VL: DIQLTQSPSSLSASVGDRVTITCSASISVSYMYWYQQKPGKAPKLLIYDMSNLASGVPSRFSGSGSGTDFTLTISSLQPEDFATYYCMQWSGYPYTFGQGTKVEIK | 2.69 nM | 0.00267 s⁻¹ | 991000 M⁻¹ s⁻¹
